From patent US4133804A, “Polypeptide possessing thymic activity” (Institut National de la Sante et de la Recherche Medicale …, priority 1976, dated 1979) come the findings set out here.

Values after ≈ are worked out from the molar mass of the structure shown. Non-standard residues stand in square brackets, D forms with d. No end group written: not given here. pGlu = O=C1CC[C@@H](C(=O)O)N1

Data set [1] has as its system spleen rosette forming cells (RFC). Nature of the data set: cells. To be noted: Mus musculus, read-out: AZ minimal concentration inhibiting 50 percent spleen rosette forming cells.
Protocol: At the end of the incubation, 12 × 10^6 sheep red blood cells (SRBC) are added to the cells in the test sample. The cells in the sample are centrifuged for 6 minutes at 200 g. and carefully and gently resuspended by rotation on a roller (10 cm. diameter) at low speed (10 rev./min.). RFC are counted in a haematocytometer. In the absence of thymic activity, the number of RFC is 1210/10^6 cells ± 120 (standard deviation, SD). In the presence of thymic activity, the RFC level is lowered to 200 to 400/10^6 cells.
The nature of the next data set: isoelectric point. In kind it is physicochemical. To be noted: given as pH. From the text:
The polypeptide hormone of this invention has an isoelectric point (pI) at pH 7.5 ± 0.1. Lack of affinity to activated charcoal indicates the absence of aromatic amino acids. Elution of the polypeptide with the void volume when chromatographed on Sephadex G-10 and retention on Sephadex G-15, G-25 and G-50 indicates a molecular weight greater than 700 and less than 3,000. Ultrafiltration through Amicon membranes indicates a molecular weight of […] to 10,000. No significant retention of the polypeptide is observed on CF-50, PM-30 and PM-10 membranes which have molecular cut-offs of 50,000; 30,000 and 10,000 respectively. Conversely no significant activity is found in UM2 and UM0.5 filtrates which have molecular weight cut-offs of 1,000 and 500 respectively. The polypeptide has the property that it binds to carboxymethyl cellulose at pH lower than 7.0 and to DEAE cellulose at a pH higher than 9.0. The polypeptide bound on carboxymethyl cellulose can be eluted with 0.12M NaCl.

Consider `Cn1cnc([N+](=O)[O-])c1Sc1ncnc2nc[nH]c12` [AZ, azathioprine], for which the IC50 in data set [1] was determined as 1 µg/mL (≈ 3.61 µM).
Take “pyroglutamyl-Ala-Lys-Ser-Gln-Gly-Gly-Ser-Asn ([pGlu]AKSQGGSN) [polypeptide hormone, polypeptide hormone isolated from porcine blood]”: the “isoelectric point (pI)” value is 7.5 ± 0.1 in the data set “isoelectric point” and ~7.5 in the data set “isoelectric point” (listed as thymic factor).
